Measurements published in the supplement of paper PMC7877785.
± gives the uncertainty stated by the source.

Test: self-splicing fitness, log relative to wild type (ln ratio); higher = more splicing; Tetrahymena group I intron in knt gene, E. coli kanamycin selection, DiMSum; sequences stand for … in CUCUCU…GGAGGGAAAAGUUAUCAGGCAUGCACCUGGUAGCUAGUCUUUAAACCAAUAGAUUGCAUCGGUUUAAAAGGCAAGACCGUCAAAUUGCGGGAAAGGGGUCAACAGCCGUUCAGUACCAAGUCUCAGGGGAAACUUUGAGAUGGCCUUGCAAAGGGUAUGGUAAUAAGCUGACGGACAUGGUCCUAACCACGCAGCCAAGUCCUAAGUCAACAGAUCUUCUGUUGAUAUGGAUGCAGUUCACAGACUAAAUGUCGGUCGGGGAAGAUGUAUUCUUCUCAUAAGAUAUAGUCGGACCUCUCCUUAAUGGGAGCUAGCGGAUGAAGUGAUGCAACACUGGAGCCGCUGGGAACUAAUUUGUAUGCGAAAGUAUAUUGAUUAGUUUUGGAGUACUCGUGGUCG
Outline: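 Fitness was computed with DiMSum as the error-weighted combination of replicate fold changes, kanamycin versus none, each normalised to wild type. The library randomised all eight intron nucleotides of the P1ex region, with the intron placed in the knt kanamycin-resistance gene on pET-22b(+) in E. coli BL21(DE3). Six replicate transformations were grown overnight at 37°C or 30°C on LB agar with or without 25 μg/mL kanamycin, plus 100 μg/mL carbenicillin, 50 μM IPTG and 0.2% rhamnose. Pooled colonies were amplicon-sequenced on an Illumina HiSeq 2500.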

Sequence | self-splicing fitness (ln) (30 °C) | self-splicing fitness (ln) (37 °C)
UGUAAGCAAUAUUACGCUAU | -3.7 ± 0.32 | -2.24 ± 0.29
UGUAAGCAAUAUUACGCUCG | -1.1 ± 0.11 | -0.752 ± 0.13
UGUAAGCAAUAUUACGGAAG | -1.91 ± 0.13 | -2.38 ± 0.21
UGUAAGCAAUAUUACGGGAU | -3.28 ± 0.32 | -2.46 ± 0.29
UGUAAGCAAUAUUACGGGGA |  | -1.19 ± 0.25
UGUAAGCAAUAUUACGGUAC | -1.81 ± 0.45 | 
UGUAAGCAAUAUUACGGUUA | -0.297 ± 0.091 | -0.0116 ± 0.098
UGUAAGCAAUAUUACGUGCG | -0.869 ± 0.075 | -0.337 ± 0.1
UGUAAGCAAUAUUACGUUCA | -0.719 ± 0.1 | -0.118 ± 0.14
UGUCAGCAAUAUUACGAAAG | -1.72 ± 0.14 | -1.21 ± 0.17
UGUCAGCAAUAUUACGAAAU | -2.21 ± 0.19 | -1.18 ± 0.19
UGUCAGCAAUAUUACGAAUU | -0.864 ± 0.13 | -1.04 ± 0.13
UGUCAGCAAUAUUACGACAC | -3.09 ± 0.47 | 
UGUCAGCAAUAUUACGACAG | -1.62 ± 0.16 | -0.615 ± 0.14
UGUCAGCAAUAUUACGACCC | -0.106 ± 0.22 | 0.358 ± 0.26
UGUCAGCAAUAUUACGACCU | -0.114 ± 0.17 | 0.566 ± 0.17
UGUCAGCAAUAUUACGACGC | -2.44 ± 0.22 | -1.61 ± 0.22
UGUCAGCAAUAUUACGACUG | -0.284 ± 0.1 | 0.525 ± 0.13
UGUCAGCAAUAUUACGAGAG | -3.21 ± 0.23 | -2.58 ± 0.2
UGUCAGCAAUAUUACGCAUU | -1.74 ± 0.09 | -0.133 ± 0.092
UGUCAGCAAUAUUACGCCAG | -1.31 ± 0.1 | -0.7 ± 0.12
UGUCAGCAAUAUUACGCCAU | -1.79 ± 0.18 | -1.98 ± 0.16
UGUCAGCAAUAUUACGCGAG | -1.31 ± 0.096 | -0.991 ± 0.098
UGUCAGCAAUAUUACGCGAU | -3.41 ± 0.4 | -2.2 ± 0.34
UGUCAGCAAUAUUACGCGGA | -2.91 ± 0.2 | -1.52 ± 0.15
UGUCAGCAAUAUUACGCGUC | -2.7 ± 0.3 | -1.51 ± 0.29

Sequence | self-splicing fitness (ln) (30 °C) | self-splicing fitness (ln) (37 °C)
UGUCAGCAAUAUUACGGAAU | -2.63 ± 0.15 | -0.922 ± 0.14
UGUCAGCAAUAUUACGGACA | -3.1 ± 0.29 | -1.75 ± 0.21
UGUCAGCAAUAUUACGGACG | -2.2 ± 0.15 | -1.34 ± 0.18
UGUCAGCAAUAUUACGGAUG | -2.07 ± 0.088 | -0.996 ± 0.1
UGUCAGCAAUAUUACGGCAG | -1.55 ± 0.11 | -0.219 ± 0.13
UGUCAGCAAUAUUACGGGAC | -4.31 ± 0.23 | -2.93 ± 0.34
UGUCAGCAAUAUUACGGGCC | -0.854 ± 0.12 | -0.00781 ± 0.16
UGUCAGCAAUAUUACGGUAC | -4.07 ± 0.46 | -1.38 ± 0.17
UGUCAGCAAUAUUACGGUGG | -2.14 ± 0.099 | -1.32 ± 0.097
UGUCAGCAAUAUUACGGUUG | -0.893 ± 0.049 | 0.317 ± 0.072
UGUCAGCAAUAUUACGUCGA | -0.404 ± 0.073 | -0.0273 ± 0.085
UGUCAGCAAUAUUACGUGAA | -0.122 ± 0.068 | 0.427 ± 0.083
UGUCAGCAAUAUUACGUGAG | -0.0851 ± 0.056 | 0.251 ± 0.072
UGUCAGCAAUAUUACGUUGU | -4.25 ± 0.27 | -2.3 ± 0.16
UGUGAGCAAUAUUACGAAUA | -3.54 ± 0.43 | -2.26 ± 0.36
UGUGAGCAAUAUUACGAAUC | -2.91 ± 0.38 | 
UGUGAGCAAUAUUACGACCG | -1.22 ± 0.19 | -0.38 ± 0.21
UGUGAGCAAUAUUACGACUU | -2.13 ± 0.23 | -2.33 ± 0.26
UGUGAGCAAUAUUACGAGUA | -2.16 ± 0.21 | -2.07 ± 0.29
UGUGAGCAAUAUUACGAGUC | -2.67 ± 0.27 | 
UGUGAGCAAUAUUACGCACC | -1.27 ± 0.21 | -1.14 ± 0.22
UGUGAGCAAUAUUACGCCCA | -0.902 ± 0.39 | -1.3 ± 0.36
UGUGAGCAAUAUUACGCUAC | -3 ± 0.32 | 
UGUGAGCAAUAUUACGGAAC |  | -1.72 ± 0.48
UGUGAGCAAUAUUACGGCAG | -2.64 ± 0.27 | -0.26 ± 0.28
UGUGAGCAAUAUUACGGGAG | -2.52 ± 0.21 | -2.04 ± 0.33

Sequence | self-splicing fitness (ln) (30 °C) | self-splicing fitness (ln) (37 °C)
UGUGAGCAAUAUUACGGGCU | -0.671 ± 0.38 | -1.48 ± 0.46
UGUGAGCAAUAUUACGGUUC | -2.76 ± 0.21 | -2.9 ± 0.24
UGUGAGCAAUAUUACGUCAC | -3.91 ± 0.47 | 
UGUGAGCAAUAUUACGUGCA | -1.1 ± 0.14 | -0.55 ± 0.16
UGUGAGCAAUAUUACGUGUG | -2.7 ± 0.11 | -0.66 ± 0.13
UGUGAGCAAUAUUACGUGUU | -3.8 ± 0.25 | -2.59 ± 0.25
UGUGAGCAAUAUUACGUUAG | -2.17 ± 0.25 | -2.84 ± 0.34
UGUGAGCAAUAUUACGUUGG | -2.86 ± 0.31 | -2.85 ± 0.44
UGUUAGCAAUAUUACGAACU | -0.445 ± 0.15 | 0.216 ± 0.18
UGUUAGCAAUAUUACGAAUU | -1.44 ± 0.11 | -1.6 ± 0.22
UGUUAGCAAUAUUACGACCG | -0.238 ± 0.14 | 0.106 ± 0.14
UGUUAGCAAUAUUACGACUC | -1.01 ± 0.19 | -0.182 ± 0.28
UGUUAGCAAUAUUACGAUGA | -0.408 ± 0.09 | -1.06 ± 0.092
UGUUAGCAAUAUUACGAUGG | -1.71 ± 0.11 | -0.474 ± 0.1
UGUUAGCAAUAUUACGCAAA | -0.989 ± 0.22 | -0.62 ± 0.32
UGUUAGCAAUAUUACGCAUG | -1.38 ± 0.084 | -0.483 ± 0.089
UGUUAGCAAUAUUACGCCCU | -0.0997 ± 0.17 | 0.532 ± 0.18
UGUUAGCAAUAUUACGCCGU | -1.98 ± 0.44 | -0.747 ± 0.42
UGUUAGCAAUAUUACGCGAG | -3.15 ± 0.25 | -2.42 ± 0.19
UGUUAGCAAUAUUACGCGCU | -1.36 ± 0.13 | -0.409 ± 0.12
UGUUAGCAAUAUUACGCUCU | -1.66 ± 0.16 | -0.371 ± 0.16
UGUUAGCAAUAUUACGCUUU | -2.85 ± 0.2 | -1.32 ± 0.14
UGUUAGCAAUAUUACGGAUA | -1.36 ± 0.13 | -1.45 ± 0.12
UGUUAGCAAUAUUACGGAUU | -2.53 ± 0.16 | -0.414 ± 0.13
UGUUAGCAAUAUUACGGCCG | 0.71 ± 0.11 | 0.567 ± 0.17
